Where “and” joins values, the source holds several entries; their conditions need not be identical. Equal values may be shown once.

The conditions of data set [1]: read-out: affinity to heme (KD); cited from earlier work.
Data set [2] concerns HO-1. Description: Renal cortical HO-1 mRNA (RT-PCR) and protein (ELISA) after IV myoglobin, SnPP or both (Example 1). The class given is in vivo, mice. The note with it: 1 mg myoglobin, 1 μmole SnPP.
Data set [3] is described as follows: Plasma LDH 4 hr after IV test agents (marker of liver, kidney, lung and heart injury). The format is in vivo, mice. The note with it: 4 hr IV.
The test system of the next data set is haptoglobin. Put plainly: Haptoglobin protein expression after SQ injection of myoglobin or myoglobin + PEG. The note with it: 4 hour time point after SQ injection; control 9.5. The class given is in vivo, mice. The protocol:
Myoglobin+PEG: To a stock solution of 20 mg/ml Mgb in PBS was added 100 mg/ml of PEG-6000; 250 ul. This was administered as a subcutaneous injection in the dorsal neck (250 ul total injection). For combined Mgb/PEG+SnPP, SnPP was added to the above in a concentration of 3 mg/ml.

Data set [4] deals with HO-1. Put plainly: Renal cortical HO-1 mRNA (RT-PCR) and protein (ELISA) after IV myoglobin, SnPP or both (Example 1). The class given is in vivo, mice. An excerpt:
The Glycerol Model of AKI. This is a widely used model of rhabdomyolysis-induced AKI that has been employed worldwide for 50 years. The model was used to test whether prophylactic interventions confer protection against AKI. Basically, the protocol is as follows: Male CD-1 mice (35-45 grams), obtained from Charles River Laboratories, Wilmington, M A were studied. Mice were maintained under standard vivarium conditions and generally housed for 1-3 weeks prior to study. The mice were placed in a cylindrical restraining cage, and then were given a tail vein injection of the test substances (see below) or test substance vehicle. The mice were then returned to their cages. Eighteen hours (hrs) later, the mice were briefly anesthetized by isoflurane inhalation, and given an intramuscular injection of hypertonic (50%) glycerol in a dose of 9 ml/Kg body weight. The dose is divided in two, with half injected into the muscle of each of the hind limbs. The mice were then returned to their cages. Eighteen hrs later, the mice were deeply anesthetized with pentobarbital (50-100 mg/Kg), the abdominal cavity was opened through a midline abdominal incision, a blood sample was obtained from the abdominal vena cava and the kidneys were resected. A kidney cross section was obtained and fixed in formalin for subsequent histologic analysis. The terminal blood samples were analyzed for BUN and creatinine, using commercially available assay kits. The remaining kidney tissue was subjected to cortical dissection, and the cortical tissues were then extracted for protein and RNA. The protein samples were saved for analysis of HO-1 levels, and the RNA samples were subjected to RT-PCR to quantify HO-1 mRNA as well as levels of other stress gene mRNAs (e.g. NGAL, haptoglobin, hemopexin, hepicidin).
Myoglobin+SnPP: To 5 mg of dry myoglobin was added 0.9 ml of PBS+0.1 ml of a stock SnPP solution (50 umole/ml). The resulting final concentrations were 5 mg/ml myoglobin+5 umoles/ml of SnPP. The tail vein was injected with 200 μl of this solution, which equals 1 mg myoglobin+1 umole SnPP. […]
Four hr post myoglobin vs myoglobin+SnPP vs SnPP alone experiments. To confirm that the myoglobin+SnPP has a synergistic effect in inducing HO-1 mRNA and HO-1 protein levels, each of the above combinations have been administered alone via tail vein injection. Four hrs later, the mice were sacrificed as noted above and the kidneys were harvested for assessment of HO-1 mRNA and protein levels. For additional information regarding methods, see Zager et al., Am J Physiol Renal Physiol. 2014 Jul. 30. Pii.

Another data set deals with HK-2 cells. Description: Myoglobin toxicity in HK-2 cells, MTT assay. The note with it: 10 mg/mL, 18 hr incubation, vs control incubated cells. The class given is cell-based. The protocol:
Example 3. […] HK-2 cells (a proximal tubule cell line derived from normal human kidney) were incubated in keratinocyte serum free medium either under normal (control) conditions or in the presence of 10 mg/mL horse skeletal muscle myoglobin or nitrited myoglobin (produced by equimolar Na nitrite addition to 10 mg/ml myoglobin). After 18 hr incubations, the severity of cell injury (% cell death) was assessed by MTT assay. Myoglobin induced 40% cell death (40% decrease in MTT cell uptake), compared to control incubated cells. Nitrite binding to myoglobin reduced cell death by 75%. Thus, nitrite binding is able to reduce myoglobin's cytotoxic effects.

B1: Hemopexin: 60 kDa plasma protein that sequesters free heme; protective stress protein (background) (protein, listed as Homo sapiens)
chain: MARVLGAPVALGLWSLCWSLAIATPLPPTSAHGNVAEGETKPDPDVTERCSDGWSFDATTLDDNGTMLFFKGEFVWKSHKWDRELISERWKNFPSPVDAAFRQGHNSVFLIKGDKVWVYPPEKKEKGYPKLLQDEFPGIPSPLDAAVECHRGECQAEGVLFFQGDREWFWDLATGTMKERSWPAVGNCSSALRWLGRYYCFQGNQFLRFDPVRGEVPPRYPRDVRDYFMPCPGRGHGHRNGTGHGNSTHHGPEYMRCSPHLVLSALTSDNHGATYAFSGTHYWRLDTSRDGWHSWPIAHQWPQGPSAVDAAFSWEEKLYLVQGTQVYVFLTKGGYTLVSGYPKRLEKEVGTPHGIILDSVDAAFICPGSSRLHIMAGRRLWWLDLKSGAQATWTELPWPHEKVDGALCMEKSLGPNSCSANGPGLYLIHGPNLYCYSDVEKLNAAKALPQPQNVTSLLGCTH
For the molecule B1, the Kd in data set [1] is under 1 pM.

B2: Myoglobin: Lyophilized horse skeletal muscle (myoglobin) (Sigma Chemicals) used as the test agent (protein, listed as Homo sapiens)
chain: MGLSDGEWQLVLNVWGKVEADIPGHGQEVLIRLFKGHPETLEKFDKFKHLKSEDEMKASEDLKKHGATVLTALGGILKKKGHHEAEIKPLAQSHATKHKIPVKYLEFISECIIQVLQSKHPGDFGADAQGAMNKALELFRKDMASNYKELGFQG
Take B2: the “HO-1 mRNA induction (HO-1/GAPDH mRNA)” value with HO-1 [2] (overnight (roughly 18 hrs) post IV, individual subjects) is 0.71 and 0.53 and 0.51. The HO-1 protein induction with HO-1 [2] (overnight (roughly 18 hrs) post IV, individual subjects, in ng/mg protein) is 50.6 and 34.9 and 24.6. In addition, in the data set with HO-1 [2] (overnight post IV, control 0.46), the “HO-1 mRNA induction (HO-1/GAPDH mRNA), Average” value is recorded as 0.58. Further, the “HO-1 protein induction, Average” value in the data set on HO-1 [2] (overnight post IV, control 20.5) turned out to be 36.7. Also, the “Plasma LDH, Average” value in data set [3] (carrier 4.43) was determined as 4.47 Absorbance U LDH/ml. Also, the “Plasma LDH” value in data set [3] (individual subjects) is 4.54 Absorbance U LDH/ml (2×) and 3.90 Absorbance U LDH/ml and 4.91 Absorbance U LDH/ml. In addition, the Haptoglobin protein expression in the data set on haptoglobin is given as 32.7 ± 6.3 ng/mg protein. Further, the “HO-1 protein expression (by ELISA), Average” value with HO-1 [4] (cortex, 4 hr IV, 1 mg myoglobin, 1 μmole SnPP, PBS 13.5, carrier 21.5) is 45.4 ng HO-1/mg protein. For the same molecule, the “HO-1 protein expression (by ELISA)” value in the data set on HO-1 [4] (cortex, 4 hr IV, 1 mg myoglobin, 1 μmole SnPP, individual mice) is 40.7 ng HO-1/mg protein and 40.2 ng HO-1/mg protein and 64.7 ng HO-1/mg protein and 36.0 ng HO-1/mg protein. In addition, the “HO-1/GAPDH mRNA, Average” value in the data set on HO-1 [4] (kidney, 4 hr post IV injection, control average 1.93) came to 3.93. In the data set on HO-1 [4] (kidney, 4 hr post IV injection, individual mice), the “HO-1/GAPDH mRNA” value was 7.78 and 2.93 and 2.58 and 2.41. Also, the “Cell death (decrease in MTT cell uptake)” value in the data set on HK-2 cells stood at 40%.

(Values after patent US20250195556A1, “COMPOSITIONS, KITS, AND METHODS TO INDUCE ACQUIRED CYTORESISTANCE USING STRESS PROTEIN INDUCERS” (FRED HUTCHINSON CANCER RESEARCH CENTER, priority 2014, published 2025).)
